From US20110294730A1, “METHOD OF TREATING GLAUCOMA AND INTRAOCULAR HYPERTENSION” (priority 2010, published 2011)

Assays:
[1] = tested on: trabecular meshwork; conditions: cited from earlier work
[2] = in vivo; cited from earlier work
[3] = […] eye drops; cited from earlier work
[4] = Curcumin eye drops, retinal damage due to glaucoma; type: in vivo; conditions: curcumin 1 to 5 percent in normal saline
From the text: We have used curcumin diluted in the normal saline from 1 to 5 percent after extracting it from turmeric using solvents such as DMSO and alcohol as well other known solvents. […] The sclera can be stained yellow that can be mistaken for jaundice. All the above antioxidants can be used with insulin as described above and there is no systemic reaction.

[5] = patients treated with latanoprost; cited from earlier work

Compound	extracellular acidification [1]	Effective duration of action [2]	Maximum duration [2]	Onset of Action [2]	Peak action [2]	also measured
11-Ib: exogenous growth factor	significantly stimulated					
Insulin lispro [Insulin lispro (Humalog)]		3 to 4 h	4 to 6 h	¼-½	½-1¼	
Insulin aspart [Insulin aspart (NovoLog)]		3 to 4 h	4 to 6 h	¼-½	½-1¼	
HGF: exogenous growth factor	significantly stimulated					
Insulin glulisine [Insulin glulisine (Apidra)]		3 to 4 h	4 to 6 h	¼-½	½-1¼	
FGF-1: exogenous growth factor	significantly stimulated					
IGF-1: insulin like growth factor	significantly stimulated					
TGF-a: exogenous growth factor	significantly stimulated					
Regular (soluble): short-acting regular (soluble) insulin		3 to 6 h	6 to 8 h		2 to 3 h	
TNF-a	significantly stimulated					
NPH (isophane): intermediate-acting NPH (isophane) insulin		10 to 16 h	14 to 18 h	2 to 4 h	6 to 10 h	
CNC(=O)Oc1ccc2c(c1)[C@]1(C)CCN(C)[C@@H]1N2C [physostigmine sulphate]						miosis [3]: sustained miosis
COc1cc(/C=C/C(=O)CC(=O)/C=C/c2ccc(O)c(OC)c2)ccc1O [curcumin]						improving the retinal damage [4]: very effective
Insulin detemir [Insulin detemir (Levemir)]		14 h	~20 h	3 to 4 h	6 to 8 h	
EGF: exogenous growth factor	significantly stimulated					
Insulin glargine [Insulin glargine (Lantus)]		18 to 20 h	20 to 24 h	3 to 4 h	8 to 16 h	
CC(C)OC(=O)CCC/C=C\C[C@@H]1[C@@H](CC[C@@H](O)CCc2ccccc2)[C@H](O)C[C@@H]1O [latanoprost]						increased iris pigmentation, share of patients [5]: ≤ 17%
